T1: BRB1 tyrosine kinase substrate peptide
T1 chain: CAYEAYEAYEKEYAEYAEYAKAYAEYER

B1: CSK (protein)
chain: MSAIQAAWPSGTECIAKYNFHGTAEQDLPFCKGDVLTIVAVTKDPNWYKAKNKVGREGIIPANYVQKREGVKAGTKLSLMPWFHGKITREQAERLLYPPETGLFLVRESTNYPGDYTLCVSCDGKVEHYRIMYHASKLSIDEEVYFENLMQLVEHYTSDADGLCTRLIKPKVMEGTVAAQDEFYRSGWALNMKELKLLQTIGKGEFGDVMLGDYRGNKVAVKCIKNDATAQAFLAEASVMTQLRHSNLVQLLGVIVEEKGGLYIVTEYMAKGSLVDYLRSRGRSVLGGDCLLKFSLDVCEAMEYLEGNNFVHRDLAARNVLVSEDNVAKVSDFGLTKEASSTQDTGKLPVKWTAPEALREKKFSTKSDVWSFGILLWEIYSFGRVPYPRIPLKDVVPRVEKGYKMDAPDGCPPAVYEVMKNCWHLDAAMRPSFLQLREQLEHIKTHELHL
B2: EphA4 (protein)
chain: SRRRSKYSKAKQEADEEKHLNQGVRTYVDPFTYEDPNQAVREFAKEIDASCIKIEKVIGVGEFGEVCSGRLKVPGKREICVAIKTLKAGYTDKQRRDFLSEASIMGQFDHPNIIHLEGVVTKCKPVMIITEYMENGSLDAFLRKNDGRFTVIQLVGMLRGIGSGMKYLSDMSYVHRDLAARNILVNSNLVCKVSDFGMSRVLEDDPEAAYTTRGGKIPIRWTAPEAIAYRKFTSASDVWSYGIVMWEVMSYGERPYWDMSNQDVIKAIEEGYRLPPPMDCPIALHQLMLDCWQKERSDRPKFGQIVNMLDKLIRNPNSLKRTGTESSRPNTALLDPSSPEFSAVVSVGDWLQAIKMDRYKDNFTAAGYTTLEAVVHVNQEDLARIGITAITHQNKILSSVQAMRTQMQQMHGRMVPV

Tests used:
[1] = target: T1, BRB1 tyrosine kinase substrate peptide

Protein	Signal to Noise Ratio with BRB1 Peptide (TR-FRET kinase assay; kinase 20 nM) [1]	Average Signal at 665 nm (TR-FRET kinase assay; kinase 2 nM, read 1 h after adding Eu-PT66 antibody) (poly-EAY)	Average Signal at 665 nm (TR-FRET kinase assay; kinase 2 nM, read 18 h after adding Eu-PT66 antibody) (poly-EAY)	Average Signal at 665 nm (TR-FRET kinase assay; kinase 2 nM, read 24 h after adding Eu-PT66 antibody) (poly-EAY)	Average Signal at 665 nm (TR-FRET kinase assay; kinase 2 nM, read 1 h after adding Eu-PT66 antibody) (poly-EY)	Average Signal at 665 nm (TR-FRET kinase assay; kinase 2 nM, read 18 h after adding Eu-PT66 antibody) (poly-EY)	Average Signal at 665 nm (TR-FRET kinase assay; kinase 2 nM, read 24 h after adding Eu-PT66 antibody) (poly-EY)	Average Signal at 665 nm (TR-FRET kinase assay; kinase 2 nM, read 1 h after adding Eu-PT66 antibody) [1]	Average Signal at 665 nm (TR-FRET kinase assay; kinase 2 nM, read 18 h after adding Eu-PT66 antibody) [1]	Average Signal at 665 nm (TR-FRET kinase assay; kinase 2 nM, read 24 h after adding Eu-PT66 antibody) [1]	Signal to Noise ratio with BRB1 Peptide (TR-FRET kinase assay; kinase 0.5 nM) [1]
B1	27.2	–	–	–	–	–	–	–	–	–	–
B2	–	110000	51400	45800	89000	35000	30100	134000	117000	116000	31.5

— patent US20100015650
